Test results: patent publication US20110052595A1 (Kyowa Kirin, published 2011)

T1: mutant HB-EGF in which serine at position 147 from the N-terminal was substituted with threonine (human, UniProt Q99075 63-148)
T1 construct: Transiently expressed on mouse LMTK cells; also called S147T
T1 chain: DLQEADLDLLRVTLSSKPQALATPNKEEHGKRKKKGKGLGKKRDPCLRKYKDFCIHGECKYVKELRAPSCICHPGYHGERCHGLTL


Legend:
[1] = target: T2, recombinant secretory human HB-EGF manufactured by R & D System (catalogue number 259-HE/CF) (human, UniProt Q99075 63-148, biotin-labeled with EZ-Link Sulfo-NHS-Biotin in the EGFR binding inhibition assay only); assay: Biacore T-100, HB-EGF immobilized on CM5 chip, antibody as analyte
T2 construct: Bought protein; also called recombinant human HB-EGF; secretory HB-EGF
Protocol: In order to analyze binding activities of a mouse antibody KM3566 and the chimeric antibody KM3966 for human HB-EGF in reaction kinetics, the binding activity measurement was carried out using Biacore. All of the following operations were carried out using Biacore T-100 (manufactured by Biacore). Human HB-EGF (manufactured by R & D) prepared into 5 μg/ml using HBS-EP Buffer (manufactured by Biacore) was immobilized onto a CM 5 sensor chip (manufactured by Biacore) to a level of 80 RU (resonance unit) by an amine coupling method. Thereafter, each antibody diluted 5-fold from 9 nmol/l was let flow on the chip at a rate of 10 μl/min, and by analyzing the sensor-gram at each concentration, the association rate constant and dissociation rate constant of each antibody for human HB-EGF were calculated.
It was confirmed based on the results that both antibodies almost the same binding activity for human HB-EGF.

[2] = target: bovine serum albumin (BSA) (bovine, UniProt P02769 25-607); assay: binding ELISA
bovine serum albumin (BSA), sequence (P02769 25-607 limits assumed): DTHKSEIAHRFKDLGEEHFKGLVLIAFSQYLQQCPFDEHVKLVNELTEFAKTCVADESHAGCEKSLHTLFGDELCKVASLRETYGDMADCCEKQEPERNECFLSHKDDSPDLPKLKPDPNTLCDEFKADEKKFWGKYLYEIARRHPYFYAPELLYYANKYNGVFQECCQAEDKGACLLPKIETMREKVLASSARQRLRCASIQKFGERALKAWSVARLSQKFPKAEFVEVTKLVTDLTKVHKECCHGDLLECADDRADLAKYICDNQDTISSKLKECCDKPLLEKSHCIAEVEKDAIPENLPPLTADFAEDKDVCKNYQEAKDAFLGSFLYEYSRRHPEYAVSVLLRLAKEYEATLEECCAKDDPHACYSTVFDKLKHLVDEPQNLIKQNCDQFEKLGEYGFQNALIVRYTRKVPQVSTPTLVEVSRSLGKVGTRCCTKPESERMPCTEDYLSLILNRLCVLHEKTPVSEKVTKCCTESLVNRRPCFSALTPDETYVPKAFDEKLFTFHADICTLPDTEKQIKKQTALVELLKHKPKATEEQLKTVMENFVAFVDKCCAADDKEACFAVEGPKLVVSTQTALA

[3] = target: T1, mutant HB-EGF in which serine at …; assay: cell ELISA, biotin-labeled antibody on mutant HB-EGF gene-transferred LMTK cells, corrected for expression with H-6
Protocol: Firstly, biotin-labeled anti-HB-EGF antibody (KM3566, KM3579 or KM3966) diluted to 2 μg/ml with a binding buffer (prepared by adding nonessential amino acids, 20 mM HEPES-NaOH (pH 7.2) and 10% fetal bovine serum to Ham's F12) was allowed to react at 4° C. for 2 hours with 1×10⁵ cells of the mutant HB-EGF gene-transferred cell, human/mouse chimeric HB-EGF gene-transferred cell or mock. After the reaction, the cells were washed twice with an ice-cooled washing buffer (prepared by adding 0.5 mM CaCl₂, 0.5 mM MgCl₂ and 0.1% fetal bovine serum to PBS) and then once with PBS(+) (prepared by adding 0.5 mM CaCl₂ and 0.5 mM MgCl₂ to PBS). A formaldehyde solution diluted to 1.8% with PBS(+) was added to the washed cells, and the cells were fixed at 4° C. for 20 minutes. […] By carrying out development of color using a peroxidase detection kit (ELISA POD Substrate OPD Kit, manufactured by Nacalai Tesque), the absorbance at 492 nm was measured and the activity of cell-bonded HRP was measured.
A value obtained by subtracting the absorbance for mock from the absorbance for each of the various mutant HB-EGF gene-transferred cells or human/mouse chimeric HB-EGF gene-transferred cells of the anti-HB-EGF antibody was used as the value A. […]

| kon [1] | binding result [2] | relative binding activity (ratio to pRTHGC-6) [3] | Binder |
| --- | --- | --- | --- |
| 270000 M⁻¹ s⁻¹ | no binding | – | anti-HB-EGF monoclonal antibody KM3566 (antibody, V domains shown, also called anti-HB-EGF mouse antibody KM3566; monoclonal antibody produced by hybridoma KM3566 (FERM BP-10490)) VH: QVQLQQSGTELARPGASVKLSCKASGYTFRTYGITWVKQRTGQGLEWIGEIFPGSGNTYYNEKFKGKASLTADKSSSTAYMQLSSLTSEDSAVYFCARESFSDGYYGYFDYWGQGTTLTVSS VL: not shown |
| 240000 M⁻¹ s⁻¹ | – | ~0.33 fraction of binding to pRTHGC-6 | anti-HB-EGF chimeric antibody KM3966 (antibody, V domains shown, also called human chimeric antibody KM3966; anti-HB-EGF monoclonal antibody KM3966) VH: QVQLQQSGTELARPGASVKLSCKASGYTFRTYGITWVKQRTGQGLEWIGEIFPGSGNTYYNEKFKGKASLTADKSSSTAYMQLSSLTSEDSAVYFCARESFSDGYYGYFDYWGQGTTLTVSS VL: not shown |
